Key:
Assay in all cases: PEPSCAN ELISA, looped peptide, 10 ug/ml
[1] = molecular target: looped/cyclic peptide … (rabies virus strain ERA)
[2] = molecular target: looped/cyclic peptide … (rabies virus strain ERA); remark: listed apart in the source
[3] = molecular target: looped/cyclic peptide … (rabies virus strain ERA); remark: listed apart in the source
[4] = molecular target: looped/cyclic peptide … (rabies virus strain ERA); remark: listed apart in the source
[5] = molecular target: looped/cyclic peptide … (rabies virus strain ERA); remark: listed apart in the source
[6] = molecular target: looped/cyclic peptide … (rabies virus strain ERA); remark: listed apart in the source
[7] = molecular target: looped/cyclic peptide … (rabies virus strain ERA); remark: listed apart in the source
[8] = molecular target: looped/cyclic peptide … (rabies virus strain ERA); remark: listed apart in the source
[9] = molecular target: looped/cyclic peptide … (rabies virus strain ERA); remark: listed apart in the source
[10] = molecular target: looped/cyclic peptide … (rabies virus strain ERA); remark: listed apart in the source
[11] = molecular target: looped/cyclic peptide … (rabies virus strain ERA); remark: listed apart in the source
[12] = molecular target: looped/cyclic peptide … (rabies virus strain ERA); remark: listed apart in the source
[13] = molecular target: looped/cyclic peptide … (rabies virus strain ERA); remark: listed apart in the source
[14] = molecular target: looped/cyclic peptide … (rabies virus strain ERA); remark: listed apart in the source
[15] = molecular target: looped/cyclic peptide … (rabies virus strain ERA); remark: listed apart in the source
[16] = molecular target: looped/cyclic peptide … (rabies virus strain ERA); remark: listed apart in the source
[17] = molecular target: looped/cyclic peptide … (rabies virus strain ERA); remark: listed apart in the source
[18] = molecular target: looped/cyclic peptide … (rabies virus strain ERA); remark: listed apart in the source
[19] = molecular target: looped/cyclic peptide … (rabies virus strain ERA); remark: listed apart in the source
[20] = molecular target: looped/cyclic peptide … (rabies virus strain ERA); remark: listed apart in the source
[21] = molecular target: looped/cyclic peptide … (rabies virus strain ERA); remark: listed apart in the source
[22] = molecular target: looped/cyclic peptide … (rabies virus strain ERA); remark: listed apart in the source
[23] = molecular target: looped/cyclic peptide ADPSTVFKDGDEAED (rabies virus strain ERA)
[24] = molecular target: looped/cyclic peptide … (rabies virus strain ERA); remark: listed apart in the source
[25] = molecular target: looped/cyclic peptide … (rabies virus strain ERA); remark: listed apart in the source
[26] = molecular target: looped/cyclic peptide … (rabies virus strain ERA); remark: listed apart in the source
[27] = molecular target: looped/cyclic peptide … (rabies virus strain ERA); remark: listed apart in the source
[28] = molecular target: looped/cyclic peptide … (rabies virus strain ERA); remark: listed apart in the source
[29] = molecular target: looped/cyclic peptide … (rabies virus strain ERA); remark: listed apart in the source
[30] = molecular target: looped/cyclic peptide … (rabies virus strain ERA); remark: listed apart in the source
[31] = molecular target: looped/cyclic peptide … (rabies virus strain ERA); remark: listed apart in the source
[32] = molecular target: looped/cyclic peptide … (rabies virus strain ERA); remark: listed apart in the source
[33] = molecular target: looped/cyclic peptide … (rabies virus strain ERA); remark: listed apart in the source
[34] = molecular target: looped/cyclic peptide … (rabies virus strain ERA); remark: listed apart in the source
[35] = molecular target: looped/cyclic peptide … (rabies virus strain ERA); remark: listed apart in the source
[36] = molecular target: looped/cyclic peptide … (rabies virus strain ERA); remark: listed apart in the source
[37] = molecular target: looped/cyclic peptide … (rabies virus strain ERA); remark: listed apart in the source
[38] = molecular target: looped/cyclic peptide … (rabies virus strain ERA); remark: listed apart in the source
[39] = molecular target: looped/cyclic peptide … (rabies virus strain ERA); remark: listed apart in the source
[40] = molecular target: looped/cyclic peptide … (rabies virus strain ERA); remark: listed apart in the source
[41] = molecular target: looped/cyclic peptide … (rabies virus strain ERA); remark: listed apart in the source
[42] = molecular target: looped/cyclic peptide … (rabies virus strain ERA); remark: listed apart in the source
[43] = molecular target: looped/cyclic peptide … (rabies virus strain ERA); remark: listed apart in the source
[44] = molecular target: looped/cyclic peptide … (rabies virus strain ERA); remark: listed apart in the source
[45] = molecular target: looped/cyclic peptide … (rabies virus strain ERA); remark: listed apart in the source
[46] = molecular target: looped/cyclic peptide … (rabies virus strain ERA); remark: listed apart in the source
[47] = molecular target: looped/cyclic peptide … (rabies virus strain ERA); remark: listed apart in the source
[48] = molecular target: looped/cyclic peptide … (rabies virus strain ERA); remark: listed apart in the source
[49] = molecular target: looped/cyclic peptide … (rabies virus strain ERA); remark: listed apart in the source
[50] = molecular target: looped/cyclic peptide … (rabies virus strain ERA); remark: listed apart in the source
[51] = molecular target: looped/cyclic peptide … (rabies virus strain ERA); remark: listed apart in the source
[52] = molecular target: looped/cyclic peptide … (rabies virus strain ERA); remark: listed apart in the source
[53] = molecular target: looped/cyclic peptide … (rabies virus strain ERA); remark: listed apart in the source
[54] = molecular target: looped/cyclic peptide … (rabies virus strain ERA); remark: listed apart in the source
[55] = molecular target: looped/cyclic peptide … (rabies virus strain ERA); remark: listed apart in the source
[56] = molecular target: looped/cyclic peptide … (rabies virus strain ERA); remark: listed apart in the source
[57] = molecular target: looped/cyclic peptide … (rabies virus strain ERA); remark: listed apart in the source
[58] = molecular target: looped/cyclic peptide … (rabies virus strain ERA); remark: listed apart in the source
[59] = molecular target: looped/cyclic peptide … (rabies virus strain ERA); remark: listed apart in the source
[60] = molecular target: looped/cyclic peptide … (rabies virus strain ERA); remark: listed apart in the source
[61] = molecular target: looped/cyclic peptide … (rabies virus strain ERA); remark: listed apart in the source

B1: human monoclonal antibody CRJB (antibody, V domains shown)
VH: QITLKETGPTLVKPTQTLTLTCTFSGFSLSTSGVGVGWIRQPPGKALEWVTLIYWDDDKRYSPSLENRVTIRKDTSKNQVALTMTNMDPLDTGTYYCAHRQHISSFPWFDSWGQGTLVTVSS
VL: SYVLTQPPSVSVAPGKTARINCGGNNIEYRSVHWYQQKSGQAPVAVIYDNSDRPSGIPERFSGSKSGNTATLTISRVEAGDEADYYCQVWDISSDVVFGGGTKLTVLG
In the case of B1, the OD [1] is reported as 87 OD, the OD [2] is reported as 101 OD and the OD [3] is reported as 90 OD. For the same binder, the OD [4] was 91 OD, the OD [5] was 92 OD and the OD [6] was 106 OD. The OD [7] was 123 OD, the OD [8] was 78 OD and the OD [9] was 93 OD. The OD [10] was 106 OD, the OD [11] was 103 OD and the OD [12] was 76 OD. The OD [13] was 99 OD, the OD [14] was 110 OD and the OD [15] was 98 OD. The OD [16] was 93 OD, the OD [17] was 78 OD and the OD [18] was 71 OD. The OD [19] was 104 OD, the OD [20] was 113 OD and the OD [21] was 100 OD. The OD [22] was 85 OD, the OD [23] was 72 OD and the OD [24] was 85 OD. For the same binder, the OD [25] was 93 OD, the OD [26] was 88 OD and the OD [27] was 58 OD. The OD [28] was 103 OD, the OD [29] was 93 OD and the OD [30] was 98 OD. For the same binder, the OD [31] was 71 OD, the OD [32] was 94 OD and the OD [33] was 92 OD. It also gave an OD [34] of 102 OD, an OD [35] of 147 OD and an OD [36] of 94 OD. For the same binder, the OD [37] was 104 OD, the OD [38] was 104 OD and the OD [39] was 104 OD. The OD [40] was 101 OD, the OD [41] was 104 OD and the OD [42] was 92 OD. For the same binder, the OD [43] was 88 OD, the OD [44] was 113 OD and the OD [45] was 100 OD. For the same binder, the OD [46] was 112 OD, the OD [47] was 93 OD and the OD [48] was 92 OD. It also gave an OD [49] of 87 OD, an OD [50] of 107 OD and an OD [51] of 100 OD. The OD [52] was 94 OD, the OD [53] was 85 OD and the OD [54] was 97 OD. The OD [55] was 91 OD, the OD [56] was 79 OD and the OD [57] was 96 OD. The OD [58] was 91 OD, the OD [59] was 79 OD and the OD [60] was 107 OD. The OD [61] was 82 OD.

From patent publication US20060263802A1 (CRUCELL HOLLAND B V, published 2006)
